Literature values in paper PMC5852440.

Molecular target: EphB4 (Homo sapiens) (UniProt P54760)
Sequence of UniProt P54760 (P54760 16-539): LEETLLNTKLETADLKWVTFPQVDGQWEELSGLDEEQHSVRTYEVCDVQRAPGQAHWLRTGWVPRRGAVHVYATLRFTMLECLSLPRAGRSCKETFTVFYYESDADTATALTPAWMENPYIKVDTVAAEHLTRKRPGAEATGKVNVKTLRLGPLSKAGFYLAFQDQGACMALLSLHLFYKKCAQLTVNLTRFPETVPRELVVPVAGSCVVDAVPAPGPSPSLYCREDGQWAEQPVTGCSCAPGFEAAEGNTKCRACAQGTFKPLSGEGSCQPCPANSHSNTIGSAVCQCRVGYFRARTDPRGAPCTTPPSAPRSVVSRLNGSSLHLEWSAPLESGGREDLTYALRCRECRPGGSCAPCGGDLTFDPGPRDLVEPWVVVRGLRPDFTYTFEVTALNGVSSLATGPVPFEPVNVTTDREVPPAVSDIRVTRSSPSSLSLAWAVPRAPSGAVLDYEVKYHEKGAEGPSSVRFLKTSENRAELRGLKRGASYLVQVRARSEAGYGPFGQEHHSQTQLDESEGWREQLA

Epo (from UniProt P01588)
Kd: 880 nM
